# Results published in publication PMC10626271 (FEBS Open Bio, 2023).
# T1: C-terminal domain of ASPL (ASPL-C, residues 313-553) (human, UniProt Q9BZE9 313-553)
# T1 construct: the 26 kDa printed for ASPL-C in the cross-linking experiment fits the chain without GST; The cited crystal structure covers residues 317-499; source: E. coli BL21 DE3 Rosetta2, purified (glutathione-Sepharose 4B, Superdex 75 SEC)
# T1 sequence (looked up): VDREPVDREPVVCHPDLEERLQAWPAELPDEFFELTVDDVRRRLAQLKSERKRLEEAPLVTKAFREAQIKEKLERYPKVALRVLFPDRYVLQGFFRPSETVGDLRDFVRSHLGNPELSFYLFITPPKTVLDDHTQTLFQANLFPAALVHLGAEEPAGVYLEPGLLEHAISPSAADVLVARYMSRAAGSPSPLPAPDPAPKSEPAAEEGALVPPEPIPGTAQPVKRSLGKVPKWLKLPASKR
# B1: Thioredoxin fused C-terminally with human GLUT4 intracellular helical bundle (residues 225-271, I232C/K264C) (domain or fragment, UniProt P14672 225-271, looked up)
# chain: ESPRYLYCIQNLEGPARKSLKRLTGWADVSGVLAELKDECRKLERER
# notes: human GLUT4 intracellular helical bundle (ICH) between TM6 and TM7, residues 225-271, with I232C and K264C to form a stabilising disulphide bond; Synthetic gene (GenScript) in pET24a; 18 kDa monomer; a 36 kDa peak was also seen on SEC; also called Trx-ICH_(GLUT4); ICH_(GLUT4); source: E. coli TUNER (DE3), purified (Ni-NTA, Superdex 75 SEC; monomer peak used); not shown: Trx (thioredoxin), …
# Key:
# [1] = target: T1, C-terminal domain of ASPL (ASPL-C, …); assay: SPR; ASPL-C immobilised on CM5 chip by amine coupling (1000 RU); analytes 0.6 to 83 μM in 10 mM HEPES, 150 mM NaCl, 0.005% Tween20, pH 7.4; BIAcore 3000, duplicates; one-site specific binding fit of the response against concentration; no saturation reached; conditions: both partners purified
# [2] = target: the molecule itself; assay: SEC; Superdex 75 increase 10/300 of Ni-NTA purified Trx-ICH_(GLUT4)
binder,measurement,setting,value
B1,Kd,[1],68 µM
same,stoichiometry N,[2],2
